Results: US20070207532

Legend:
[1] = target: AGT mutant of Example 1 (GST fusion) Lys125Ala, Ala127Thr, Arg128Ala, Asn157Gly, Ser159Glu (Homo sapiens) (UniProt P16455); conditions: co-purified DNA estimated by A280/A260 after purification in 50 mM phosphate, 0.1 M NaCl, 1 mM DTT
[2] = target: PGEG-hAGT (GST fusion) Asn157Gly, Ser159Glu (Homo sapiens) (UniProt P16455); assay: inhibition; conditions: BG-Cy3 reaction rate with 25 ug/ml DNA
PGEG-hAGT (GST fusion) Asn157Gly, Ser159Glu (Homo sapiens), sequence (P16455 whole entry N157G/S159E, the tested form may be a part): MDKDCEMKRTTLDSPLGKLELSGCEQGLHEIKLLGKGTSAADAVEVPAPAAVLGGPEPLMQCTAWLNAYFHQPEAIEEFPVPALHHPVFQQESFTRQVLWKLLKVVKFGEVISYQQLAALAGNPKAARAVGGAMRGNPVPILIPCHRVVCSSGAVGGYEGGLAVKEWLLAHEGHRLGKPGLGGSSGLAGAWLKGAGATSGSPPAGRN

AGT mutant of Example 1 (GST fusion) Lys125Ala, Ala127Thr, Arg128Ala, Asn157Gly, Ser159Glu (Homo sapiens), sequence (P16455 whole entry K125A/A127T/R128A/N157G/S159E, the tested form may be a part): as the sequence (P16455 whole entry N157G/S159E, the tested form may be a part) above, with K125A, A127T, R128A counted along it

| Substance | binding signal [1] | activity (fold rate reduction) [2] |
| --- | --- | --- |
| co-purified E. coli DNA | > 10 fold reduced | – |
| salmon sperm DNA | – | 5 |
